This is an account of results in patent publication US7429474B2, “2-O sulfatase compositions and methods of analyzing therewith” (Massachusetts Institute of Technology, priority 2003, dated 2008).

Entries after “also recorded” stand apart in the source; their conditions may differ.

Data set [1] addresses T1, 2-O sulfatase (2-O ΔN^1-24) (Pedobacter heparinus, UniProt C6Y1N2). Kind of data set: 2-O sulfatase assay and disaccharide substrate kinetics by capillary electrophoresis. The class given is biochemical, F. heparinum.
The test system of data set [2] is 2-O sulfatase. Kind of data set: desulfation of 2-O sulfated chondroitin disaccharides under extended and exhaustive conditions. The class given is biochemical, F. heparinum. The following applies: 4× higher enzyme concentration, 20 minute period.
Data set [3] has as its system 2-O sulfatase. The experiment in a line: effect of ionic strength, metal ions, EDTA, buffers and cysteine-reactive agents on 2-O sulfatase activity. The class given is biochemical, F. heparinum. The settings on record: for effect of additive on enzyme activity: EDTA up to 1 mM, CaCl2, MgCl2, MnCl2 up to 10 mM, DTNB, DTT, 50 mM phosphate buffer pH 6.5. Here is the method:
For pilot experiments measuring the relative effect of ionic strength on 2-O sulfatase activity, the NaCl concentration was varied from 0.05 to 1 M in 50 mM MES buffer (pH 6.5) that included 500 μM of the disulfated disaccharide ΔU2SHNS,6S and 50 nM enzyme. The effect of pH on sulfatase activity was assessed as a function of catalytic efficiency by measuring kinetic parameters in the following two overlapping pH buffer systems ranging from 5.0 to 8.0: 50 mM MES at pH 5.0, 5.5, 6.5, and 7.0; 50 mM MOPS at pH 6.5, 7.0, 7.5 and 8.0. Assays included 25 nM enzyme, 50 mM NaCl and varying concentrations of the disulfated disaccharide substrate ΔU2SHNS. Km and kcat values were extrapolated from Vo vs. [S] curves fit to the Michaelis-Menten equation by a non-linear least squares regression and the relative kcat/Km ratios plotted as a function of buffer pH. […] Relative activities were measured at a single saturating substrate concentration (4 mM) using ΔU2SHNS.
We also examined 2-O sulfatase activity relative to ionic composition.

In data set [4] the target is T1, 2-O sulfatase (2-O ΔN^1-24). The experiment in a line: exolytic desulfation of oligosaccharides by 2-O sulfatase (CE compositional analysis and MALDI-MS). It counts as biochemical, F. heparinum.
For data set [5] the following is noted: −85° C., 10% glycerol.
The nature of data set [6]: biochemical reaction conditions (pH, ionic strength, temperature) for recombinant 2-O sulfatase. The following applies: for activity at outlying pH values of 5 and 8: pH 5.0 and 8.0. Here is the method:
FIG. 6 provides the in vitro biochemical reaction conditions for the recombinant 2-O sulfatase. Panel (A) illustrates the effect of pH. Sulfatase catalytic efficiency (kcat/Km) was measured as a function of varying pH from 5 to 8 using two overlapping buffers: 50 mM MES (solid circles) and 50 mM MOPS (open circles). Inset: Relative effect of three different assay buffers (each at pH 6.5) on optimal enzyme activity. 1.50 mM MES; 2.50 mM imidazole; 3.50 mM sodium phosphate. Panel (B) illustrates the effect of ionic strength. Shown here is % activity normalized to 50 mM NaCl. Panel (C) illustrates the effect of reaction temperature. Data is normalized to 30° C. activity (100%). The unsaturated disaccharide ΔU2SHNS was used in all three experiments.
For pilot experiments measuring the relative effect of ionic strength on 2-O sulfatase activity, the NaCl concentration was varied from 0.05 to 1 M in 50 mM MES buffer (pH 6.5) that included 500 μM of the disulfated disaccharide ΔU2SHNS,6S and 50 nM enzyme. The effect of pH on sulfatase activity was assessed as a function of catalytic efficiency by measuring kinetic parameters in the following two overlapping pH buffer systems ranging from 5.0 to 8.0: 50 mM MES at pH 5.0, 5.5, 6.5, and 7.0; 50 mM MOPS at pH 6.5, 7.0, 7.5 and 8.0. Assays included 25 nM enzyme, 50 mM NaCl and varying concentrations of the disulfated disaccharide substrate ΔU2SHNS. Km and kcat values were extrapolated from Vo vs. [S] curves fit to the Michaelis-Menten equation by a non-linear least squares regression and the relative kcat/Km ratios plotted as a function of buffer pH. Based on this profile, relative enzyme activity was also measured in four different buffers (MES, imidazole, ADA, and sodium phosphate) each present as a 50 mM concentration at pH 6.5. Relative activities were measured at a single saturating substrate concentration (4 mM) using ΔU2SHNS.
These parameters included pH, temperature, ionic strength, and possible divalent metal ion dependency.
37° C. was the default temperature at which all of the preliminary biochemical experiments were conducted. We measured both relative enzyme activity and stability as a function of varying reaction temperature (FIG. 6, Paenl (C)). The 2-O sulfatase was active over a fairly broad temperature range (25° C. to 37° C.), with optimal activity occurring at 30° C. Enzyme activity was compromised at 42° C. Enzyme stability at this temperature was likewise affected as assessed in pre-incubation experiments conducted at varying temperatures (30° C.→42° C.) prior to measuring 2-O sulfatase activity at 30° C.

Substrate in data set [7]: O=C(O)C1=C[C@H](O)[C@@H](OS(=O)(=O)O)[C@H](O[C@H]2[C@H](O)[C@@H](NS(=O)(=O)O)C(O)O[C@@H]2CO)O1
Kind of data set: 2-O sulfatase assay and disaccharide substrate kinetics by capillary electrophoresis. It counts as biochemical, F. heparinum. The settings on record: other: 25 nM 2-O ΔN^1-24, 50 mM imidazole pH 6.5, 50 mM NaCl, 30° C., chondroitin disaccharide approximated from double reciprocal plots.

Substrate in data set [8]: O=C(O)C1=C[C@H](O)[C@@H](OS(=O)(=O)O)[C@H](O[C@H]2[C@H](O)[C@@H](NS(=O)(=O)O)C(O)O[C@@H]2COS(=O)(=O)O)O1
The description is as above. The class given is biochemical, F. heparinum. The following applies: other: 25 nM 2-O ΔN^1-24, 50 mM imidazole pH 6.5, 50 mM NaCl, 30° C., chondroitin disaccharide approximated from double reciprocal plots.

Substrate in data set [9]: CC(=O)N[C@H]1C(O)O[C@H](CO)[C@@H](O[C@@H]2OC(C(=O)O)=C[C@H](O)[C@H]2OS(=O)(=O)O)[C@@H]1O
The data set is described as above. The settings on record: other: 25 nM 2-O ΔN^1-24, 50 mM imidazole pH 6.5, 50 mM NaCl, 30° C., chondroitin disaccharide approximated from double reciprocal plots. It counts as biochemical, F. heparinum.

Substrate in data set [10]: CC(=O)N[C@H]1C(O)O[C@H](COS(=O)(=O)O)[C@@H](O[C@@H]2OC(C(=O)O)=C[C@H](O)[C@H]2OS(=O)(=O)O)[C@@H]1O
The data set is described as above. The class given is biochemical, F. heparinum. The settings on record: other: 25 nM 2-O ΔN^1-24, 50 mM imidazole pH 6.5, 50 mM NaCl, 30° C., chondroitin disaccharide approximated from double reciprocal plots.

Regarding `CC(=O)N[C@H]1C(O)O[C@H](COS(=O)(=O)O)[C@H](O)[C@@H]1O[C@@H]1OC(C(=O)O)=C[C@H](O)[C@H]1OS(=O)(=O)O` (some centres unmarked) [ΔU2SGalNac.6S], in data set [1] (25 nM 2-O ΔN^1-24, 50 mM imidazole pH 6.5, 50 mM NaCl, 30° C., chondroitin disaccharide approximated from double reciprocal plots), the Km is over 10000 µM. Also, the kcat in data set [1] (25 nM 2-O ΔN^1-24, 50 mM imidazole pH 6.5, 50 mM NaCl, 30° C., substrate 0.1-4 mM, chondroitin disaccharide approximated from double reciprocal plots) is under 100 s⁻¹. In addition, in [1] (same kinetic conditions as heparin disaccharides), the “hydrolysis under the standard kinetic conditions” value was “albeit neglibly, hydrolyzed; also recorded: only neglibly hydrolyzed”. Moreover, the substrate desulfated result in the data set on 2-O sulfatase [2] is “approximately 40%”.

With `O=C(O)CN(CCN(CC(=O)O)CC(=O)O)CC(=O)O` [EDTA], the “effect of additive on enzyme activity” value in the data set with 2-O sulfatase [3] is given as “largely unaffected”. For the same molecule, in the data set on 2-O sulfatase [3] (preincubation of enzyme with 5 mM EDTA, trisulfated disaccharide substrate), the inhibition of activity result was “approximately 10%”.

On to `[Cl][Mn][Cl]` [MnCl2], for which, in the data set with 2-O sulfatase [3], the “effect of additive on enzyme activity” value is on record as “no substantive effect”.

Consider `CC(=O)N[C@H]1C(O)O[C@H](CO)[C@H](OS(=O)(=O)O)[C@@H]1O[C@@H]1OC(C(=O)O)=C[C@H](O)[C@H]1OS(=O)(=O)O` (some centres unmarked) [ΔU2SGalNAc,4S], for which, in the data set with 2-O sulfatase [2], the substrate desulfated result is recorded as “less than 10%”.

Turning to `O=C(O)C1=C[C@H](O)[C@@H](OS(=O)(=O)O)[C@H](O[C@H]2[C@H](O)[C@@H](NS(=O)(=O)O)C(O)O[C@@H]2COS(=O)(=O)O)O1` (some centres unmarked) [ΔU2SHNS,6S], the “position specificity of desulfation by the recombinant sulfatase” value in data set [1] (ΔU2SHNS,6S versus ΔUHNS,6S, CE) is given as “only hydrolyzed a single sulfate, namely, the one found at the 2-OH position”.

`[Cl-].[Cl-].[Mg+2]` [MgCl2]: in the data set on 2-O sulfatase [3], the “effect of additive on enzyme activity” value is recorded as “no substantive effect”.

`O=C(O)c1cc(SSc2ccc([N+](=O)[O-])c(C(=O)O)c2)ccc1[N+](=O)[O-]` [DTNB]: the “effect of additive on enzyme activity” value in the data set with 2-O sulfatase [3] was “not inhibited”.

For the molecule `[Ca+2].[Cl-].[Cl-]` [CaCl2], the “effect of additive on enzyme activity” value with 2-O sulfatase [3] is “no substantive effect”.

In the case of `O[C@@H](CS)[C@@H](O)CS` [DTT], in the data set with 2-O sulfatase [3], the “effect of additive on enzyme activity” value is on record as “not inhibited”.

With `CC(=O)NC1C(OC2C(C(=O)O)OC(OC3C(COS(=O)(=O)O)OC(O)C(NS(=O)(=O)O)C3OS(=O)(=O)O)C(O)C2O)OC(COS(=O)(=O)O)C(OC2OC(C(=O)O)C(OC3OC(COS(=O)(=O)O)C(OC4OC(C(=O)O)C(OC5OC(COS(=O)(=O)O)C(OC6OC(C(=O)O)C(OC7OC(COS(=O)(=O)O)C(OC8OC(C(=O)O)=CC(O)C8OS(=O)(=O)O)C(O)C7NS(=O)(=O)O)C(O)C6OS(=O)(=O)O)C(O)C5NS(=O)(=O)O)C(O)C4OS(=O)(=O)O)C(O)C3NS(=O)(=O)O)C(O)C2O)C1O` [AT-10, ΔU2SHNS,6SI2SHNS,6SI2SHNS,6SIHNAc,6SGHNS,3S,6S], the “disappearance of disaccharide ΔU2SHNS,6S in compositional analysis” value in data set [4] (2-O sulfatase then exhaustive heparinase treatment, CE) is “by only one-third”. Besides, in data set [4] (MALDI-MS), the “sulfates lost after exhaustive 2-O sulfatase treatment (mass spectrometry)” value is on record as “Loss of a single sulfate”.

B1: 2-O sulfatase: recombinant F. heparinum 2-O sulfatase expressed in E. coli; experiments used the truncated enzyme with the histidine tag cleaved (protein, listed as Flavobacterium heparinum)
chain: MKMYKSKGWLIAMLILAGFGDAGAQTSKVAASRPNIIIIMTDQQTADAMSNAGNKDLHTPAMDVLAANGTRFTRAYCAQPLCTPSRSAIFSGKMPHETGFTGNTPEKDGQWPDSVLMMGKIFKAGGYKTGYVGKWHLPVPVTKVAQHGFETIENTGMGDYTDAVTPSQCANFNKKNKDNPFLLVASFLNPHDICEWARGDNLKMDVLDAAPDTAFCPKLPANWPIPAFEPAIVREQQKVNPRTYPSVGWNESQWRKYRWAYNRLVEKVDNYMAMVLGSLKKYGIEDNTIIIFTSDHGDGYAAHEWNQKQILYEEAARIPFIISKIGQWKARTDDQLVCNGIDIIPTICGFAGIAKPVGLKGLDLSKRIANPSVKLRDTLVIETDFADNELLLGIKGRAVITKDFKYIVYDKGEIREQLFDLEKDAGEMDNLAVKPAYKKKLNEMRAYLKLWCKQHQDSFYALKK
With B1, the “activity after long-term storage, freezing and thawing” value in data set [5] was “without any subsequent loss of activity”. In [6] (50 mM MES / MOPS, pH 5 to 8), the pH activity range is on record as 6.0-7.0 and the “pH optimum of activity (catalytic efficiency)” value stood at 6.5. Besides, the “enzyme activity at 42° C.” value in data set [6] (42° C.) was “compromised”. The “NaCl concentration of optimal activity” value in [6] (NaCl titration) is recorded as “approximately 50 mM”. In data set [6], the “activity at outlying pH values of 5 and 8” value is given as “essentially no activity”. The “activity at outlying pH values of 5 and 8” value in [6] (listed as flavobacterial sulfatase) is “essentially inactive”. In addition, in [6] (varying reaction temperature), the “temperature of optimal activity” value was 30 °C.

B2: 2-O sulfatase (2-O ΔN^1-24) (Pedobacter heparinus DSM 2366) (protein)
chain: QTSKVAASRPNIIIIMTDQQTADAMSNAGNKDLHTPAMDVLAANGTRFTRAYCAQPLCTPSRSAIFSGKMPHETGFTGNTPEKDGQWPDSVLMMGKIFKAGGYKTGYVGKWHLPVPVTKVAQHGFETIENTGMGDYTDAVTPSQCANFIKKNKDNPFLLVASFLNPHDICEWARGDNLKMDVLDAAPDTAFCPKLPANWPIPAFEPAIVREQQKVNPRTYPSVGWNESQWRKYRWAYNRLVEKVDNYMAMVLGSLKKYGIEDNTIIIFTSDHGDGYAAHEWNQKQILYEEAARIPFIISKIGQWKARTDDQLVCNGIDIIPTICGFAGIAKPVGLKGLDLSKRIANPSVKLRDTLVIETDFADNELLLGIKGRAVITKDFKYIVYDKGEIREQLFDLEKDAGEMDNLAVKPAYKKKLNEMRAYLKLWCKQHQDSFYALKK
As for B2, the Km stood at 1060 µM in data set [7], 87 µM in [8], 4660 µM in data set [9] and 515 µM in [10]. Besides, the kcat worked out at 911 s⁻¹ in data set [7], 814 s⁻¹ in data set [8], 673 s⁻¹ in data set [9] and 1670 s⁻¹ in data set [10]. Moreover, the kcat/Km in data set [7] came out at 859000 M⁻¹ s⁻¹; in data set [8] it was 9.36e+06 M⁻¹ s⁻¹; in data set [9], 144000 M⁻¹ s⁻¹; in data set [10], 3.25e+06 M⁻¹ s⁻¹.
